Reference: PMC7367873, “Dissecting the sequence determinants for dephosphorylation by the catalytic subunits of phosphatases PP1 and PP2A” (Nature Communications, 2020)

What was measured:
[1] = test system: GFP-14-3-3β and its binding proteins; test: GFP-14-3-3β co-IP with LC-MS/MS label-free quantification, untreated versus PP1c-treated; parameters: species or system human; conditions: pairwise comparison PP1 vs untreated, 3 replicates each
GFP-14-3-3β = GFP-14-3-3β co-IP with LC-MS/MS, untreated GFP-14-3-3β versus GFP control (14-3-3 interactome); assay type: binding, human; conditions: 3 replicates each
[2] = student's t-test, LC-MS/MS label-free quantification
[3] = pairwise comparison untreated GFP-14-3-3β vs GFP, student's t-test, LC-MS/MS label-free quantification
[4] = log2 difference, label-free quantification
[5] = log2 difference, pairwise comparison untreated vs GFP, label-free quantification

Molecule | Difference (log2), PP1 vs untreated [1, 2] [log2] | Difference (log2), PP1 vs untreated [1, 4] | Difference (log2), untreated vs GFP (GFP-14-3-3β; [3]) [log2] | Difference (log2), untreated vs GFP (GFP-14-3-3β; [5])
GIT1 (protein, UniProt Q9Y2X7 1-761, looked up) ARF GTPase-activating protein …: MSRKGPRAEVCADCSAPDPGWASISRGVLVCDECCSVHRSLGRHISIVKHLRHSAWPPTLLQMVHTLASNGANSIWEHSLLDPAQVQSGRRKANPQDKVHPIKSEFIRAKYQMLAFVHKLPCRDDDGVTAKDLSKQLHSSVRTGNLETCLRLLSLGAQANFFHPEKGTTPLHVAAKAGQTLQAELLVVYGADPGSPDVNGRTPIDYARQAGHHELAERLVECQYELTDRLAFYLCGRKPDHKNGHYIIPQMADSLDLSELAKAAKKKLQALSNRLFEELAMDVYDEVDRRENDAVWLATQNHSTLVTERSAVPFLPVNPEYSATRNQGRQKLARFNAREFATLIIDILSEAKRRQQGKSLSSPTDNLELSLRSQSDLDDQHDYDSVASDEDTDQEPLRSTGATRSNRARSMDSSDLSDGAVTLQEYLELKKALATSEAKVQQLMKVNSSLSDELRRLQREIHKLQAENLQLRQPPGPVPTPPLPSERAEHTPMAPGGSTHRRDRQAFSMYEPGSALKPFGGPPGDELTTRLQPFHSTELEDDAIYSVHVPAGLYRIRKGVSASAVPFTPSSPLLSCSQEGSRHTSKLSRHGSGADSDYENTQSGDPLLGLEGKRFLELGKEEDFHPELESLDGDLDPGLPSTEDVILKTEQVTKNIQELLRAAQEFKHDSFVPCSEKIHLAVTEMASLFPKRPALEPVRSSLRLLNASAYRLQSECRKTVPPEPGAPVDFQLLTQQVIQCAYDIAKAAKQLVTITTREKKQ | -4.417 |  | 5.06 | 
PA2G4 (protein, UniProt Q9UQ80 2-394, looked up) Proliferation-associated …: SGEDEQQEQTIAEDLVVTKYKMGGDIANRVLRSLVEASSSGVSVLSLCEKGDAMIMEETGKIFKKEKEMKKGIAFPTSISVNNCVCHFSPLKSDQDYILKEGDLVKIDLGVHVDGFIANVAHTFVVDVAQGTQVTGRKADVIKAAHLCAEAALRLVKPGNQNTQVTEAWNKVAHSFNCTPIEGMLSHQLKQHVIDGEKTIIQNPTDQQKKDHEKAEFEVHEVYAVDVLVSSGEGKAKDAGQRTTIYKRDPSKQYGLKMKTSRAFFSEVERRFDAMPFTLRAFEDEKKARMGVVECAKHELLQPFNVLYEKEGEFVAQFKFTVLLMPNGPMRITSGPFEPDLYKSEMEVQDAELKALLQSSASRKTQKKKKKKASKTAENATSGETLEENEAGD |  | 1.519 |  | 0.3875
EDC3 (protein, UniProt Q96F86 1-508, looked up) Enhancer of mRNA-decapping …: MATDWLGSIVSINCGDSLGVYQGRVSAVDQVSQTISLTRPFHNGVKCLVPEVTFRAGDITELKILEIPGPGDNQHFGDLHQTELGPSGAGCQVGINQNGTGKFVKKPASSSSAPQNIPKRTDVKSQDVAVSPQQQQCSKSYVDRHMESLSQSKSFRRRHNSWSSSSRHPNQATPKKSGLKNGQMKNKDDECFGDDIEEIPDTDFDFEGNLALFDKAAVFEEIDTYERRSGTRSRGIPNERPTRYRHDENILESEPIVYRRIIVPHNVSKEFCTDSGLVVPSISYELHKKLLSVAEKHGLTLERRLEMTGVCASQMALTLLGGPNRLNPKNVHQRPTVALLCGPHVKGAQGISCGRHLANHDVQVILFLPNFVKMLESITNELSLFSKTQGQQVSSLKDLPTSPVDLVINCLDCPENVFLRDQPWYKAAVAWANQNRAPVLSIDPPVHEVEQGIDAKWSLALGLPLPLGEHAGRIYLCDIGIPQQVFQEVGINYHSPFGCKFVIPLHSA | -4.243 |  | 4.9273 | 
HOMER3 (protein, UniProt Q9NSC5 1-361, looked up) Homer protein homolog 3: MSTAREQPIFSTRAHVFQIDPATKRNWIPAGKHALTVSYFYDATRNVYRIISIGGAKAIINSTVTPNMTFTKTSQKFGQWADSRANTVYGLGFASEQHLTQFAEKFQEVKEAARLAREKSQDGGELTSPALGLASHQVPPSPLVSANGPGEEKLFRSQSADAPGPTERERLKKMLSEGSVGEVQWEAEFFALQDSNNKLAGALREANAAAAQWRQQLEAQRAEAERLRQRVAELEAQAASEVTPTGEKEGLGQGQSLEQLEALVQTKDQEIQTLKSQTGGPREALEAAEREETQQKVQDLETRNAELEHQLRAMERSLEEARAERERARAEVGRAAQLLDVSLFELSELREGLARLAEAAP | -4.512 |  | 5.445 | 
GLCCI1 (protein, UniProt Q86VQ1 1-547, looked up) Glucocorticoid-induced …: MSTASSSSSSSSSQTPHPPSQRMRRSAAGSPPAVAAAGSGNGAGGGGGVGCAPAAGAGRLLQPIRATVPYQLLRGSQHSPTRPPVAAAAASLGSLPGPGAARGPSPSSPTPPAAAAPAEQAPRAKGRPRRSPESHRRSSSPERRSPGSPVCRADKAKSQQVRTSSTIRRTSSLDTITGPYLTGQWPRDPHVHYPSCMKDKATQTPSCWAEEGAEKRSHQRSASWGSADQLKEQIAKLRQQLQRSKQSSRHSKEKDRQSPLHGNHITISHTQATGSRSVPMPLSNISVPKSSVSRVPCNVEGISPELEKVFIKENNGKEEVSKPLDIPDGRRAPLPAHYRSSSTRSIDTQTPSVQERSSSCSSHSPCVSPFCPPESQDGSPCSTEDLLYDRDKDSGSSSPLPKYASSPKPNNSYMFKREPPEGCERVKVFEEMASRQPISAPLFSCPDKNKVNFIPTGSAFCPVKLLGPLLPASDLMLKNSPNSGQSSALATLTVEQLSSRVSFTSLSDDTSTAGSMEASVQQPSQQQQLLQELQGEDHISAQNYVII | -4.246 |  | 4.69 | 
EIF4E2 (protein, UniProt O60573 1-245, looked up) Eukaryotic translation …: MNNKFDALKDDDSGDHDQNEENSTQKDGEKEKTERDKNQSSSKRKAVVPGPAEHPLQYNYTFWYSRRTPGRPTSSQSYEQNIKQIGTFASVEQFWRFYSHMVRPGDLTGHSDFHLFKEGIKPMWEDDANKNGGKWIIRLRKGLASRCWENLILAMLGEQFMVGEEICGAVVSVRFQEDIISIWNKTASDQATTARIRDTLRRVLNLPPNTIMEYKTHTDSIKMPGRLGPQRLLFQNLWKPRLNVP | -4.306 |  | 3.4457 | 

Further lines, with some results ahead:

Difference (log2), PP1 vs untreated [1, 2] [log2] | Difference (log2), PP1 vs untreated [1, 4] | Molecule | Difference (log2), untreated vs GFP (GFP-14-3-3β; [3]) [log2] | Difference (log2), untreated vs GFP (GFP-14-3-3β; [5])
-3.991 |  | USP8 (protein, UniProt P40818 1-1118, looked up) Ubiquitin carboxyl-terminal …: MPAVASVPKELYLSSSLKDLNKKTEVKPEKISTKSYVHSALKIFKTAEECRLDRDEERAYVLYMKYVTVYNLIKKRPDFKQQQDYFHSILGPGNIKKAVEEAERLSESLKLRYEEAEVRKKLEEKDRQEEAQRLQQKRQETGREDGGTLAKGSLENVLDSKDKTQKSNGEKNEKCETKEKGAITAKELYTMMTDKNISLIIMDARRMQDYQDSCILHSLSVPEEAISPGVTASWIEAHLPDDSKDTWKKRGNVEYVVLLDWFSSAKDLQIGTTLRSLKDALFKWESKTVLRNEPLVLEGGYENWLLCYPQYTTNAKVTPPPRRQNEEVSISLDFTYPSLEESIPSKPAAQTPPASIEVDENIELISGQNERMGPLNISTPVEPVAASKSDVSPIIQPVPSIKNVPQIDRTKKPAVKLPEEHRIKSESTNHEQQSPQSGKVIPDRSTKPVVFSPTLMLTDEEKARIHAETALLMEKNKQEKELRERQQEEQKEKLRKEEQEQKAKKKQEAEENEITEKQQKAKEEMEKKESEQAKKEDKETSAKRGKEITGVKRQSKSEHETSDAKKSVEDRGKRCPTPEIQKKSTGDVPHTSVTGDSGSGKPFKIKGQPESGILRTGTFREDTDDTERNKAQREPLTRARSEEMGRIVPGLPSGWAKFLDPITGTFRYYHSPTNTVHMYPPEMAPSSAPPSTPPTHKAKPQIPAERDREPSKLKRSYSSPDITQAIQEEEKRKPTVTPTVNRENKPTCYPKAEISRLSASQIRNLNPVFGGSGPALTGLRNLGNTCYMNSILQCLCNAPHLADYFNRNCYQDDINRSNLLGHKGEVAEEFGIIMKALWTGQYRYISPKDFKITIGKINDQFAGYSQQDSQELLLFLMDGLHEDLNKADNRKRYKEENNDHLDDFKAAEHAWQKHKQLNESIIVALFQGQFKSTVQCLTCHKKSRTFEAFMYLSLPLASTSKCTLQDCLRLFSKEEKLTDNNRFYCSHCRARRDSLKKIEIWKLPPVLLVHLKRFSYDGRWKQKLQTSVDFPLENLDLSQYVIGPKNNLKKYNLFSVSNHYGGLDGGHYTAYCKNAARQRWFKFDDHEVSDISVSSVKSSAAYILFYTSLGPRVTDVAT | 6.726 | 
-4.214 |  | RAE1 (protein, UniProt P78406 1-368, looked up) mRNA export factor RAE1: MSLFGTTSGFGTSGTSMFGSATTDNHNPMKDIEVTSSPDDSIGCLSFSPPTLPGNFLIAGSWANDVRCWEVQDSGQTIPKAQQMHTGPVLDVCWSDDGSKVFTASCDKTAKMWDLSSNQAIQIAQHDAPVKTIHWIKAPNYSCVMTGSWDKTLKFWDTRSSNPMMVLQLPERCYCADVIYPMAVVATAERGLIVYQLENQPSEFRRIESPLKHQHRCVAIFKDKQNKPTGFALGSIEGRVAIHYINPPNPAKDNFTFKCHRSNGTNTSAPQDIYAVNGIAFHPVHGTLATVGSDGRFSFWDKDARTKLKTSEQLDQPISACCFNHNGNIFAYASSYDWSKGHEFYNPQKKNYIFLRNAAEELKPRNKK | 3.4084 | 
 | 1.521 | TRAM1 (protein, UniProt Q15629 1-374, looked up) Translocating …: MAIRKKSTKSPPVLSHEFVLQNHADIVSCVAMVFLLGLMFEITAKASIIFVTLQYNVTLPATEEQATESVSLYYYGIKDLATVFFYMLVAIIIHAVIQEYMLDKINRRMHFSKTKHSKFNESGQLSAFYLFACVWGTFILISENYISDPTILWRAYPHNLMTFQMKFFYISQLAYWLHAFPELYFQKTKKEDIPRQLVYIGLYLFHIAGAYLLNLNHLGLVLLVLHYFVEFLFHISRLFYFSNEKYQKGFSLWAVLFVLGRLLTLILSVLTVGFGLARAENQKLDFSTGNFNVLAVRIAVLASICVTQAFMMWKFINFQLRRWREHSAFQAPAVKKKPTVTKGRSSKKGTENGVNGTLTSNVADSPRNKKEKSS |  | 0.1201
-4.365 |  | PAK4 (protein, UniProt O96013 1-591, looked up) Serine/threonine-protein …: MFGKRKKRVEISAPSNFEHRVHTGFDQHEQKFTGLPRQWQSLIEESARRPKPLVDPACITSIQPGAPKTIVRGSKGAKDGALTLLLDEFENMSVTRSNSLRRDSPPPPARARQENGMPEEPATTARGGPGKAGSRGRFAGHSEAGGGSGDRRRAGPEKRPKSSREGSGGPQESSRDKRPLSGPDVGTPQPAGLASGAKLAAGRPFNTYPRADTDHPSRGAQGEPHDVAPNGPSAGGLAIPQSSSSSSRPPTRARGAPSPGVLGPHASEPQLAPPACTPAAPAVPGPPGPRSPQREPQRVSHEQFRAALQLVVDPGDPRSYLDNFIKIGEGSTGIVCIATVRSSGKLVAVKKMDLRKQQRRELLFNEVVIMRDYQHENVVEMYNSYLVGDELWVVMEFLEGGALTDIVTHTRMNEEQIAAVCLAVLQALSVLHAQGVIHRDIKSDSILLTHDGRVKLSDFGFCAQVSKEVPRRKSLVGTPYWMAPELISRLPYGPEVDIWSLGIMVIEMVDGEPPYFNEPPLKAMKMIRDNLPPRLKNLHKVSPSLKGFLDRLLVRDPAQRATAAELLKHPFLAKAGPPASIVPLMRQNRTR | 5.767 | 
